Measurements reported in patent US20220155321A1 (published 2022).

T1: peptide on HLA-A*01:01 (human)
T1 peptide: ASSLPTTMNY


Target: T1, peptide on HLA-A*01:01
Assay: multimer staining

| Binder | binding result |
| --- | --- |
| Reference F (TCR, V domains shown) Valpha: QKEVEQNSGPLSVPEGAIASLNCTYSDRGSQSFFWYRQYSGKSPELIMFIYSNGDKEDGRFTAQLNKASQYVSLLIRDSQPSDSATYLCAVKDNNARLMFGDGTQLVVKP Vbeta: KAGVTQTPRYLIKTRGQQVTLSCSPISGHRSVSWYQQTPGQGLQFLFEYFSETQRNKGNFPGRFSGRQFSNSRSEMNVSTLELGDSALYLCASSLSSGLYEQYFGPGTRLTVT | recognises |
| Reference H (TCR, V domains shown) Valpha: GESVGLHLPTLSVQEGDNSIINCAYSNSASDYFIWYKQESGKGPQFIIDIRSNMDKRQGQRVTVLLNKTVKHLSLQIAATQPGDSAVYFCAENMGGAGKSTFGDGTTLTVKP Vbeta: not shown | recognises |

Now from value to binder:

| binding result | Binder |
| --- | --- |
| recognises | Reference C (TCR, V domains shown) Valpha: RKEVEQDPGPFNVPEGATVAFNCTYSNSASQSFFWYRQDCRKEPKLLMSVYSSGNEDGRFTAQLNRASQYISLLIRDSKLSDSATYLCVVPRMDSSYKLIFGSGTRLLVRP Vbeta: KAGVTQTPRYLIKTRGQQVTLSCSPISGHRSVSWYQQTPGQGLQFLFEYFSETQRNKGNFPGRFSGRQFSNSRSEMNVSTLELGDSALYLCASSSTGARRSREQYFGPGTRLTVT |
| recognises | Reference G (TCR, V domains shown) Valpha: SQQGEEDPQALSIQEGENATMNCSYKTSINNLQWYRQNSGRGLVHLILIRSNEREKHSGRLRVTLDTSKKSSSLLITASRAADTASYFCATAVFNFGNEKLTFGTGTRLTIIP Vbeta: KAGVTQTPRYLIKTRGQQVTLSCSPISGHRSVSWYQQTPGQGLQFLFEYFSETQRNKGNFPGRFSGRQFSNSRSEMNVSTLELGDSALYLCASSSMTSGGPWEQYFGPGTRLTVT |
| recognises | Reference E (TCR, V domains shown) Valpha: GQQVMQIPQYQHVQEGEDFTTYCNSSTTLSNIQWYKQRPGGHPVFLIQLVKSGEVKKQKRLTFQFGEAKKNSSLHITATQTTDVGTYFCAGQGNRDDKIIFGKGTRLHILP Vbeta: DGGITQSPKYLFRKEGQNVTLSCEQNLNHDAMYWYRQDPGQGLRLIYYSQIVNDFQKGDIAEGYSVSREKKESFPLTVTSAQKNPTAFYLCASSLEWGPYEQYFGPGTRLTVT |
